The values below come from the RNAGym collection of RNA variant scans (doi:10.1073/pnas.2313332121).

To fix the notation:
B1: TPR t1 (parent)
chain: GACCAAUCUGCCCUCAGAGCUCGAGAACAUCUUCGGAUGCAGAGGAGGCAGGCUUCGGUGGCGCGAUAGCGCCAACGUCCUCAACCUCCAAUGCAUCCCACCACAUGAUGAUGCCUGAAGAGCCUUGGUUUUUUG

Variants of B1 are the subject of this data set. The data set can be described thus: polymerase ribozyme fitness, log enrichment relative to wild type (log ratio); higher = more active; in vitro selection for triplet polymerase activity. In a few lines: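 The heterodimeric triplet polymerase ribozyme's subunits were each mutagenized into PCR-built libraries and transcribed. Every library was selected once, in triplicate, by annealing with a biotinylated primer, the partner subunit and triplets, incubating frozen at −7 °C, gel-excising extended constructs, capturing on streptavidin beads and running RT-PCR. Input and output libraries were Illumina-sequenced, with genotypes kept only at ≥10 input reads and ≥1 read per output. Fitness, from inverse-variance-weighted replicate averages, is the base-2 logarithm of genotype enrichment over wild-type enrichment.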
With G19U A50C C98U G110A A121G, the “polymerase ribozyme fitness (log ratio)” value was -6.95.

Take C20A G48A C49G G61A U87G A90C: the “polymerase ribozyme fitness (log ratio)” value is -5.02.

On to G17U G69U A84C, for which the “polymerase ribozyme fitness (log ratio)” value worked out at 0.342.

Regarding G19U C124U, the “polymerase ribozyme fitness (log ratio)” value was -1.97.

In the case of G19A C62U G93U, the “polymerase ribozyme fitness (log ratio)” value was -4.23.

As for A18U A90C G122A, the “polymerase ribozyme fitness (log ratio)” value is -2.49.

Take A18G G35A G69A G117A: the “polymerase ribozyme fitness (log ratio)” value is -5.21.

In the case of C20A G120A, the “polymerase ribozyme fitness (log ratio)” value is -1.89.

In the case of G19U U87G G110C U112G, the “polymerase ribozyme fitness (log ratio)” value was -6.7.

As for A18U G45U G63U G71C G110C C114G C124U, the “polymerase ribozyme fitness (log ratio)” value was -7.92.

Turning to G19A G71C C115U G128U, the “polymerase ribozyme fitness (log ratio)” value was -5.92.

G19A C88A A95C C114G: the “polymerase ribozyme fitness (log ratio)” value is -4.8.

As for G19C G61C C88A, the “polymerase ribozyme fitness (log ratio)” value is -4.49.

Turning to G17U U130C, the “polymerase ribozyme fitness (log ratio)” value is -1.79.

On to G17U U130A, for which the “polymerase ribozyme fitness (log ratio)” value was -3.3.

For the variant A18G C53A A100C A103G C114A, the “polymerase ribozyme fitness (log ratio)” value was -5.14.

Regarding C20A G35U, the “polymerase ribozyme fitness (log ratio)” value was -5.42.

Take G19A A95U C101U: the “polymerase ribozyme fitness (log ratio)” value is -3.88.

For the variant A18U C20U A50C G69U, the “polymerase ribozyme fitness (log ratio)” value was -1.33.

As to G19A G36U, the “polymerase ribozyme fitness (log ratio)” value is -3.84.

In the case of A18G G61U C94G G113U, the “polymerase ribozyme fitness (log ratio)” value is -3.32.

For the variant A18G G113C, the “polymerase ribozyme fitness (log ratio)” value is -1.3.

On to A18U C94U, for which the “polymerase ribozyme fitness (log ratio)” value was -3.18.

For the variant G17U U21A, the “polymerase ribozyme fitness (log ratio)” value was -3.26.

Consider G19A G61A C104A G107A A121G, for which the “polymerase ribozyme fitness (log ratio)” value was -5.44.

On to A18C U32C A95C G117A U129C, for which the “polymerase ribozyme fitness (log ratio)” value was -3.97.

In the case of A18U C28U G51A U59G G117C, the “polymerase ribozyme fitness (log ratio)” value was -6.92.

G19U C56A: the “polymerase ribozyme fitness (log ratio)” value was -3.03.

As for A18C C20U C114A, the “polymerase ribozyme fitness (log ratio)” value was 0.845.

In the case of A18C G47A, the “polymerase ribozyme fitness (log ratio)” value is -2.19.

As to A18U C40G C114A, the “polymerase ribozyme fitness (log ratio)” value was -3.02.

For the variant G19A G77U, the “polymerase ribozyme fitness (log ratio)” value was -2.96.

For the variant G19C G42U C62U C76G U92G, the “polymerase ribozyme fitness (log ratio)” value is -4.02.

On to G19U A26U C64U U78C C114A, for which the “polymerase ribozyme fitness (log ratio)” value is -1.82.

Consider G19U C40U, for which the “polymerase ribozyme fitness (log ratio)” value was -3.

Take A18U G42A C53G C85U C89A: the “polymerase ribozyme fitness (log ratio)” value was -3.31.

Consider C20A C28A G36A A90C G110U, for which the “polymerase ribozyme fitness (log ratio)” value is -4.25.

As to C20G C40A G58C A121U, the “polymerase ribozyme fitness (log ratio)” value was -4.66.

As for A18C G71U U78G, the “polymerase ribozyme fitness (log ratio)” value is -4.63.

In the case of C20A C76A U106A, the “polymerase ribozyme fitness (log ratio)” value is -4.96.

Take C20A U132A: the “polymerase ribozyme fitness (log ratio)” value is -2.24.

Consider A18U C56U C94U A111C C114U, for which the “polymerase ribozyme fitness (log ratio)” value is -5.39.

Turning to C20A G42A G57U A100C, the “polymerase ribozyme fitness (log ratio)” value was -6.04.

Regarding G17U C89U, the “polymerase ribozyme fitness (log ratio)” value is -1.77.

A18U A29G G42C G110U U112G: the “polymerase ribozyme fitness (log ratio)” value was -5.42.

With A18G C89A C114G U133A, the “polymerase ribozyme fitness (log ratio)” value was -6.53.

Turning to C20G C56A, the “polymerase ribozyme fitness (log ratio)” value was -4.28.

With A18U G48U, the “polymerase ribozyme fitness (log ratio)” value is -2.49.

As for G19U U21A C79G C114A, the “polymerase ribozyme fitness (log ratio)” value was -0.277.

Consider A18U U54C A83G U109A, for which the “polymerase ribozyme fitness (log ratio)” value is -6.59.

On to A18C G19U G48A G58C C62G C124A, for which the “polymerase ribozyme fitness (log ratio)” value was -5.33.

Regarding A18C C49U C72G, the “polymerase ribozyme fitness (log ratio)” value is -3.75.

Turning to A18G U131A, the “polymerase ribozyme fitness (log ratio)” value is -2.69.

G19U G39U G48A A111G: the “polymerase ribozyme fitness (log ratio)” value is -4.12.

As to A18U G25C G57C C89G U92G C115U, the “polymerase ribozyme fitness (log ratio)” value was -5.83.

For A18G A74C C79U, the “polymerase ribozyme fitness (log ratio)” value was -4.7.

Consider A18G A50U C56A C79A C101U A118U C124U, for which the “polymerase ribozyme fitness (log ratio)” value is -7.24.

As to G19U A43U A74U, the “polymerase ribozyme fitness (log ratio)” value is -3.22.

Consider A18U C34U G61C A74C A100C G107U G110C, for which the “polymerase ribozyme fitness (log ratio)” value was -7.86.

Take G19C C20U C40A G61A U87A U112A: the “polymerase ribozyme fitness (log ratio)” value is -5.56.

G19U A119G G128A: the “polymerase ribozyme fitness (log ratio)” value is -3.71.

A18C A95C G128U: the “polymerase ribozyme fitness (log ratio)” value was -5.8.

Take C20G C115G: the “polymerase ribozyme fitness (log ratio)” value was -4.85.

For the variant C20G C115A, the “polymerase ribozyme fitness (log ratio)” value is -3.94.

For the variant A18U C82A U92A, the “polymerase ribozyme fitness (log ratio)” value was -4.27.

For A18U A27G C72A C115A G120C, the “polymerase ribozyme fitness (log ratio)” value is -3.08.

On to C20G C62U C98U A111U G120C, for which the “polymerase ribozyme fitness (log ratio)” value is -4.17.

Consider G19A A43U C49U U59A C124U, for which the “polymerase ribozyme fitness (log ratio)” value was -1.73.

As to G17U C101A G107U G120C G127A U132C, the “polymerase ribozyme fitness (log ratio)” value is -6.51.

As to C20A C79A, the “polymerase ribozyme fitness (log ratio)” value is -3.62.

C20A C104A: the “polymerase ribozyme fitness (log ratio)” value is -3.99.

For the variant A18G G39C C94A U112G C124G, the “polymerase ribozyme fitness (log ratio)” value was -5.87.

With C20A C73A, the “polymerase ribozyme fitness (log ratio)” value is -2.14.

As for G19A A118G C124G, the “polymerase ribozyme fitness (log ratio)” value is -1.63.

On to A18U C86A C89U C123U, for which the “polymerase ribozyme fitness (log ratio)” value is -3.07.

As for G17U G61A U81G C101G G117C G128U, the “polymerase ribozyme fitness (log ratio)” value is -7.2.

As to C20A G61A C80G U109A G113U U133G, the “polymerase ribozyme fitness (log ratio)” value was -7.36.

Take A18U A43U A83G C89G G110U U125A: the “polymerase ribozyme fitness (log ratio)” value is -5.8.

As to G19U A43C, the “polymerase ribozyme fitness (log ratio)” value is -3.38.

Consider C20A C49G U106C, for which the “polymerase ribozyme fitness (log ratio)” value is -3.68.

In the case of C20A A46C U78C A111C C114A, the “polymerase ribozyme fitness (log ratio)” value was -3.99.

Regarding A18U U38G G71A C89A U129A, the “polymerase ribozyme fitness (log ratio)” value was -6.64.

For the variant A18G C80U U92C G120U U129C U130A, the “polymerase ribozyme fitness (log ratio)” value was -6.4.
